Laboratory results published in the supplement of paper PMC12764529.
± gives the half width of the 95% confidence interval.

What was measured:
[1] = folding stability dG unfold (combined trypsin and chymotrypsin); higher = more stable
Summary of the method: (§1)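 How resistant each design was to proteolysis was captured as K50, inferred by Bayesian fitting of sequencing counts. Unfolding free energy was then derived relative to a sequence-predicted unfolded-state K50 and a shared folded-state K50, per protease or combined. Digestion used trypsin and chymotrypsin at 11 threefold-diluted concentrations plus a no-protease condition, on mini-proteins under 80 residues without cysteine in a PA-tagged cDNA display construct. Designs were kept only when AlphaFold2 dimer inter-PAE was above 15.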

[2] = folding stability dG unfold from trypsin proteolysis; higher = more stable
Summary of the method: as §1

[3] = folding stability dG unfold from chymotrypsin proteolysis; higher = more stable
Summary of the method: as §1

Row | Sequence | folding stability dG unfold [1] | folding stability dG unfold [2] | folding stability dG unfold [3]
1 | SMTLEEAKEIAEKNPDIPVALIFPGKKLIYIYHPKSGKWEVKPVTSIEEAIEALEKEDIDAIFIVPAELDSA [r9_775_TrMRF] | 4.06 ± 0.16 kcal/mol | 4.54 ± 0.44 kcal/mol | 3.93 ± 0.087 kcal/mol
2 | SAGGMPPGDPVKVNVQIRIRMRDPNGKKPELTVPIEYNVQSKEDARDAILKIAKELADEYGYEIEVFSAGGS [r8_149_TrROS] | 1.31 ± 0.24 kcal/mol | 0.711 ± 0.041 kcal/mol | 1.52 ± 0.12 kcal/mol
3 | SENPVLKNRPLPVVGTTERTSVAKPGESLDVKELPSNGIVATTPDGSTVGITVTVDANGNVLSLEIKPDPSA [r9_1195_JUSTAS] | 0.164 ± 0.12 kcal/mol | 0.00583 ± 0.068 kcal/mol | 0.272 ± 0.069 kcal/mol
4 | SAGGDNKPKVYPITFMIPPDDIKPGDEIPIDEIADNLGIPPNYTIKIKEVQPNPEDGYYMYRIEIVWSAGGS [r16_165_TrROS] | 1.65 ± 0.073 kcal/mol | 1.57 ± 0.041 kcal/mol | 1.68 ± 0.085 kcal/mol
5 | SAGGMVEIELEVDGKKIKITYDKETGKITIEIDGKKIEVELPEEDKGKSKEELLKKALEKAKEELKKSAGGS [r16_215_TrROS_Hall] | 2.49 ± 0.11 kcal/mol | 2.46 ± 0.23 kcal/mol | 2.46 ± 0.11 kcal/mol
6 | SAKPVAEGPIRIPNGFEIEITQIKPDKENGEIVIPIEIEMWRPERDPEDPNQPKWEPQEMNIAFTIPLDSAG [r14_888_TrROS] | 0.857 ± 0.22 kcal/mol | 1.3 ± 0.14 kcal/mol | 0.119 ± 0.81 kcal/mol
7 | SAGGSAGGSAMLRIRFENGLEIEIPKDMTLEELKKLAEELAEELKKEGKEVEVKIVEIEPVPSAGGSAGGSA [r18_213_TrROS_Hall] | 2.03 ± 0.075 kcal/mol | 1.65 ± 0.044 kcal/mol | 2.21 ± 0.029 kcal/mol
8 | SAGGSAGGSASMSYITKVEYKESPEGKLITTTTTTDPTSPNDVKTTTTVTPLPPLNPSPELKSAGGSAGGSA [r18_409_JUSTAS] | -0.525 ± 0.29 kcal/mol | -0.309 ± 0.085 kcal/mol | -0.829 ± 0.73 kcal/mol
9 | SAAAENGEITISVEVELDPETNTLTIKRVEITVNGKLIATATLTITLPPPPPEPEETVYVHPDDPEALKSAG [r14_571_TrROS_Hall] | 1.85 ± 0.093 kcal/mol | 1.54 ± 0.023 kcal/mol | 1.97 ± 0.038 kcal/mol
10 | SAPPKTRTREIEIRFDDYYVRIKITWTKDGNLKLDIEFQGPNPVMREQIKDFLEELNPDFEITDIEVYRSAG [r14_611_TrROS] | 2.38 ± 0.3 kcal/mol | 2.13 ± 0.14 kcal/mol | 2.67 ± 0.057 kcal/mol
11 | SAGGSAGGSAGPEIELREDSLVIRVKAKEGEVIGVPEGLEVEGVVYDPSTGELTVVVRAPSAGGSAGGSAGG [r11_942_TrMRF] | 1.83 ± 0.21 kcal/mol | 2.31 ± 0.23 kcal/mol | 1.73 ± 0.096 kcal/mol
12 | SMSTNLVVKEKLIPPGVLVVTYKKDGKPVKVETKVVVIPPQLVVEEVLYPGGKLALKTYDPLTGTPSFELSA [r9_343_JUSTAS] | 0.337 ± 0.29 kcal/mol | -0.122 ± 0.14 kcal/mol | 0.644 ± 0.28 kcal/mol
13 | SAGGSAGGSAGGMTYVTVTLKEGDTEVTLTFPLEKLPEVVPEPGIEILEVETSPLDPELLSAGGSAGGSAGG [r17_204_JUSTAS] | 1.05 ± 0.12 kcal/mol | 1.34 ± 0.081 kcal/mol | 0.737 ± 0.14 kcal/mol
14 | SAGGGSVSVTPVKEIPGPGTTTLYRETHPDDRTVLITYNPATGTVTVTTYKGNTKTSTTTYNTPESLSAGGS [r16_457_JUSTAS] | 1.42 ± 0.098 kcal/mol | 1.05 ± 0.035 kcal/mol | 1.53 ± 0.13 kcal/mol
15 | SAGGMPKLTVTITFEPPDGSTTTTRDFTSVEEAIEALRAVPDIPVEPLEDDVIRARRPDSETTVTIVESAGG [r13_143_JUSTAS] | -0.171 ± 0.11 kcal/mol | 0.192 ± 0.07 kcal/mol | -0.796 ± 0.24 kcal/mol
16 | SAGWKIKLENIEFFPNGRIRVMFEIEDPNGRPWRVQAQFDPDNPGKIKIKVENPDNGQEQEITFTIKPPSAG [r5_345_TrROS] | 3.83 ± 0.24 kcal/mol | 3.15 ± 0.18 kcal/mol | 4.13 ± 0.1 kcal/mol
17 | SAGGSAGGSAGGSKDERTLTLRLRVTTPIYGTDADGNPLEPIEVTKEYELTVTVPADLLSAGGSAGGSAGGS [r4_425_TrMRF] | 2.1 ± 0.16 kcal/mol | 1.18 ± 0.082 kcal/mol | 2.69 ± 0.099 kcal/mol
18 | SAGMTALFTDSSGKEVTFSHPNLELTVDPETGVVSAYEPESNLKVEVKVAPDKVTVTVYSGSSSKEIPLSAG [r5_786_JUSTAS] | 0.574 ± 0.11 kcal/mol | -0.226 ± 0.064 kcal/mol | 0.956 ± 0.16 kcal/mol
19 | SAGPEPVIRLAREHLERGEVLRITLTGRSGVPRTFLLRPEDILWFFDNLPDPSDIASVDIETYPLGYPPSAG [r5_956_TrMRF] | 3.01 ± 0.078 kcal/mol | 2.17 ± 0.028 kcal/mol | 3.352 ± 0.016 kcal/mol
20 | SAMTLTLEIELDGVRVRLEAELELVLNEDGSLELKLKLKIEVEPLPPPKEVEVEEEEEEVEEVEFLPEESAG [r14_341_TrROS_Hall] | 4.44 ± 0.26 kcal/mol | 3.82 ± 0.31 kcal/mol | 4.61 ± 0.28 kcal/mol
21 | SAGGMTTLTLETTDEGKPLGLEEILARLREALPGVPVEVLSADPAKGVVTIAVAPEAVPEIERAVAASAGGS [r8_235_JUSTAS] | 1.96 ± 0.074 kcal/mol | 1.69 ± 0.038 kcal/mol | 2.1 ± 0.022 kcal/mol

Row | Sequence | folding stability dG unfold [1] | folding stability dG unfold [2] | folding stability dG unfold [3]
22 | SAGGSAGGSAGGMTIVLNIPKEELTEEEIKKLKESLPSDNPVKIIVKPKPPRKFYPKSTISAGGSAGGSAGG [r7_979_JUSTAS] | 0.925 ± 0.065 kcal/mol | 0.605 ± 0.024 kcal/mol | 1.12 ± 0.048 kcal/mol
23 | SKPPSDPGSIEFSFPDSSNVTVTIPVPLPPNTTVSISLSDGKSYTVPGGTTFTFTLPPGKPFTVTVNIRSSA [r9_79_JUSTAS] | 4.23 ± 0.2 kcal/mol | 3.75 ± 0.2 kcal/mol | 4.47 ± 0.061 kcal/mol
24 | SAGGSAGGTISFPNATATITVEENSVTITVTNADGQPTTFTIPLPIPKAKPFTLPDGTKLYLIASAGGSAGG [r6_806_TrMRF] | 2.31 ± 0.21 kcal/mol | 1.94 ± 0.083 kcal/mol | 2.31 ± 0.16 kcal/mol
25 | SAGGSAGGSAGGKVKVLSVFELPNNKRLVLIETPSGKKILIVTDSSDPDKVKEKAKEIASAGGSAGGSAGGS [r10_472_TrMRF] | 1.73 ± 0.037 kcal/mol | 1.54 ± 0.02 kcal/mol | 1.822 ± 0.017 kcal/mol
26 | SAGGSAGGSMKVSPASRSEFDGSRVITITVTKEGTGTTTDITIPFSPDEPDVDEVAKAIAESLSAGGSAGGS [r12_415_JUSTAS] | 0.838 ± 0.091 kcal/mol | 0.0886 ± 0.12 kcal/mol | 1.12 ± 0.023 kcal/mol
27 | SAGGSAGGEVKIEVNKEKGYLLITVPKEEAEEIAKALKEKFGIKEVKIEVDEETDEVHILVKLESAGGSAGG [r6_661_TrROS_Hall] | 2.59 ± 0.27 kcal/mol | 2.5 ± 0.14 kcal/mol | 2.98 ± 0.12 kcal/mol
28 | SAMVSVTELPDGGVLATFPLPDGHPATAVFDPADLKPSVAYFPNGLRAVLRVTPDGRVELLAVEDVPPASAG [r14_877_TrMRF] | 0.943 ± 0.052 kcal/mol | 0.892 ± 0.023 kcal/mol | 0.963 ± 0.1 kcal/mol
29 | SAGGPWRFEIDDIQPPEDGKVQIRIKLYNDDGEPIQELSIPMKGVDDVKITIPIGNQPIKIPITVVPASAGG [r13_427_TrROS] | 0.361 ± 0.19 kcal/mol | -0.13 ± 0.27 kcal/mol | 0.614 ± 0.22 kcal/mol
30 | SVYNPNNPNIPTKLTVTIPVPEEVVAAGDTAAAEAAAEATAAALAPEGWRVTSVSFPRETGTMTVTLTRPSA [r9_75_JUSTAS] | 1.33 ± 0.063 kcal/mol | 1.32 ± 0.022 kcal/mol | 1.16 ± 0.11 kcal/mol
31 | SMGMTPEEYILELVREALAADPDAAVTIDHDDIVRNTPNPISKEEIEKLAKEKTGVEDLTVTETPPDVPPSA [r9_738_JUSTAS] | 0.265 ± 0.061 kcal/mol | 0.18 ± 0.023 kcal/mol | 0.252 ± 0.054 kcal/mol
32 | SAGGSAGGSAGDTSVEYEVSVTVEVFPLPDYALVKVTLEVDYPDGSKEKVEYVFLVSPYEGSAGGSAGGSAG [r3_330_TrMRF] | 3.04 ± 0.1 kcal/mol | 2.56 ± 0.19 kcal/mol | 3.35 ± 0.082 kcal/mol
33 | SAGGSAGGSKTITVRVKITLPNGETIEVEAEITVRPDGSITITLPDGSTITLPPGAKVEIEPVSAGGSAGGS [r20_227_TrROS_Hall] | 2.85 ± 0.26 kcal/mol | 2.99 ± 0.12 kcal/mol | 2.51 ± 0.17 kcal/mol
34 | SAGGSAGGMHINAPGSIEELEEKLGGPIAEATLEGPGTFTLTLENGVPITVSFDDPEQLEELIESAGGSAGG [r6_13_TrMRF] | 0.387 ± 0.18 kcal/mol | 0.524 ± 0.059 kcal/mol | 0.243 ± 0.16 kcal/mol
35 | SAGGMKTAVLTLEVPGLPKRLVLIAGESEEEYKKLAAEAEKPGYEFLGYTTLEELVERTGLPASLLLSAGGS [r16_438_JUSTAS] | 0.969 ± 0.19 kcal/mol | 0.916 ± 0.085 kcal/mol | 1.07 ± 0.28 kcal/mol
36 | SAMRIVVPYRETLRLTGLPEDTPLEEFRERFERIFRRLMERGVRPVRIEIYEIGDERYIVVEIETPGGASAG [r14_158_TrMRF] | 3.62 ± 0.041 kcal/mol | 2.907 ± 0.019 kcal/mol | 4.042 ± 0.017 kcal/mol
37 | SAGGSAGGSAKIEVEVTPLPGNKVLKIIKFENGEYIIEVFYFDPETGKIYSESEIISEEELLSAGGSAGGSA [r18_325_TrMRF] | 2.05 ± 0.13 kcal/mol | 1.3 ± 0.039 kcal/mol | 2.36 ± 0.044 kcal/mol
38 | SAGGPPGWKPVEMKITVMFDDPEEAAEKIKEEVRSHFPNIEITKVEVQRNPENNMYMVTVDIRMWVPSAGGS [r8_120_TrROS] | 3.37 ± 0.11 kcal/mol | 3.08 ± 0.18 kcal/mol | 3.37 ± 0.081 kcal/mol
39 | SAGGERLTLEELEELLKNLPPGVEEVTITLKLEVEVRTEVRLNEDGSLETRTETRVTTELTLTLPKESAGGS [r16_708_TrROS_Hall] | 3.46 ± 0.25 kcal/mol | 2.5 ± 0.34 kcal/mol | 4.01 ± 0.4 kcal/mol
40 | NRYYRITIRNPDGMPIELFVRRSPNGEYMVRVKINMPNKKPKTIWFPFKSPEDILEEIRKHLPWDIEIEPWS [r1_137_TrROS] | 3.31 ± 0.087 kcal/mol | 3.46 ± 0.089 kcal/mol | 3.28 ± 0.053 kcal/mol
41 | SAGGSAGGSAGGSWLEFTFIDPGYGWIISTMKIEINPNGNLNMDMEMVPLKPADDPEDASAGGSAGGSAGGS [r4_178_TrROS] | 2.9 ± 0.16 kcal/mol | 2.38 ± 0.13 kcal/mol | 3.32 ± 0.099 kcal/mol
42 | SMSVEISVPPTNPGASPEEIAAALAAKGRPVEVVSVSEDPSTGTRTVTIAVRAPDGTLEETVVVNAPVGVSA [r9_879_JUSTAS] | 0.0853 ± 0.12 kcal/mol | 0.495 ± 0.057 kcal/mol | -0.772 ± 0.33 kcal/mol
